The text below walks through data of paper doi:10.1101/2021.01.14.426688 (bioRxiv, 2021).

In this assay the target is ClpXP (ClpX with ClpP protease) (E. coli, UniProt P0A6H1 1-424; P0A6G7 15-207). Kind of assay: ultrafiltration.

Substitutions are numbered along the chain they refer to.

Sequence of ClpXP (ClpX with ClpP protease) (P0A6H1 whole entry, chain 1 of 2): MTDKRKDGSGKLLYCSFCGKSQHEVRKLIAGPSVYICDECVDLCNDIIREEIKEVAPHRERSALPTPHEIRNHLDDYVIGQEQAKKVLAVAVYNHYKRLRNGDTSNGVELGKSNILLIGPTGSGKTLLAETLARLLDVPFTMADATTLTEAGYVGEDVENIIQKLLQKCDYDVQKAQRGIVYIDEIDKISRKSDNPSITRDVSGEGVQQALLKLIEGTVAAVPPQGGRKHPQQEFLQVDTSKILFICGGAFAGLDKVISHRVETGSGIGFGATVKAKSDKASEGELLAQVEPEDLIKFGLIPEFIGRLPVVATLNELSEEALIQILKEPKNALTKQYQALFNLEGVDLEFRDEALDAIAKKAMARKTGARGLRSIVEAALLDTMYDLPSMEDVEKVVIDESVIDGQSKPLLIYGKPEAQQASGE
Sequence of ClpXP (ClpX with ClpP protease) (P0A6G7 15-207, chain 2 of 2): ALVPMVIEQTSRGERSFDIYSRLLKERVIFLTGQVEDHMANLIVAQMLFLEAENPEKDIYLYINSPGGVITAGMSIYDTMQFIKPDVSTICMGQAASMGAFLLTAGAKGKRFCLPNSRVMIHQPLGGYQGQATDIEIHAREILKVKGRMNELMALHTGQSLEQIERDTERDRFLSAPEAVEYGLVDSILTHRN

B1: Gfp-IDR_(FtsZ) (Gfp fused to the C-terminal 67 amino acids of E. coli FtsZ, residues 317-383) (domain or fragment, UniProt P0A9A6 317-383, looked up)
chain: MDKRPEITLVTNKQVQQPVMDRYQQHGMAPLTQEQKPVAKVVNDNAPQTAKEPDYLDIPAFLRKQAD
As for B1, the binding result is “binds”.

B2: Gfp-IDR_(FtsZ) mut-1 (Ala substitutions at FtsZ positions 352 through 358) (domain or fragment, E. coli, UniProt P0A9A6 317-383, looked up)
chain: B1 chain with K36A, P37A, V38A, K40A, V41A, V42A
For the molecule B2, the binding result is listed as “binds”.
